T1: TNFR1 (Homo sapiens, UniProt P19438)
T1 chain: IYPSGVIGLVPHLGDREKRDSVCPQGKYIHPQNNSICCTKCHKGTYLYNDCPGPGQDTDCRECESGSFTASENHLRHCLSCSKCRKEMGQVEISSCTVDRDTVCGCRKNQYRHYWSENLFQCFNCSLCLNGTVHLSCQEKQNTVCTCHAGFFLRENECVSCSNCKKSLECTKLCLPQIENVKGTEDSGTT


Target: T1, TNFR1
Assay: yeast display SC50

| Binder | apparent Kd (screen) [nM] |
| --- | --- |
| E103D (designed binder) SMEEEVEKAAKEYEKKKKEAIEKHLEKLKAKDKEAAERFLKELEEAAKEYAKDEAKTMSEEEAKRRAKKYKEKVLLSELSEEEQKEIKEAEEKLVRTILKYVDEAAK | 0.79 |
| E22W (designed binder) SMEEEVEKAAKEYEKKKKEAIWKHLEKLKAKDKEAAERFLKELEEAAKEYAKDEAKTMSEEEAKRRAKKYKEKVLLSELSEEEQKEIKEAEEKLVRTILKYVEEAAK | 0.593 |
| M58E (designed binder) SMEEEVEKAAKEYEKKKKEAIEKHLEKLKAKDKEAAERFLKELEEAAKEYAKDEAKTESEEEAKRRAKKYKEKVLLSELSEEEQKEIKEAEEKLVRTILKYVEEAAK | 8.56 |
| K100H (designed binder) SMEEEVEKAAKEYEKKKKEAIEKHLEKLKAKDKEAAERFLKELEEAAKEYAKDEAKTMSEEEAKRRAKKYKEKVLLSELSEEEQKEIKEAEEKLVRTILHYVEEAAK | 1.16 |
| Q84T (designed binder) SMEEEVEKAAKEYEKKKKEAIEKHLEKLKAKDKEAAERFLKELEEAAKEYAKDEAKTMSEEEAKRRAKKYKEKVLLSELSEEETKEIKEAEEKLVRTILKYVEEAAK | 11.4 |
| K52L (designed binder) SMEEEVEKAAKEYEKKKKEAIEKHLEKLKAKDKEAAERFLKELEEAAKEYALDEAKTMSEEEAKRRAKKYKEKVLLSELSEEEQKEIKEAEEKLVRTILKYVEEAAK | 0.869 |

Second part, the binder after the results:

| apparent Kd (screen) [nM] | Binder |
| --- | --- |
| 0.49 | K41N (designed binder) SMEEEVEKAAKEYEKKKKEAIEKHLEKLKAKDKEAAERFLNELEEAAKEYAKDEAKTMSEEEAKRRAKKYKEKVLLSELSEEEQKEIKEAEEKLVRTILKYVEEAAK |
| 1.27 | M2I (designed binder) SIEEEVEKAAKEYEKKKKEAIEKHLEKLKAKDKEAAERFLKELEEAAKEYAKDEAKTMSEEEAKRRAKKYKEKVLLSELSEEEQKEIKEAEEKLVRTILKYVEEAAK |
| 0.593 | A105Q (designed binder) SMEEEVEKAAKEYEKKKKEAIEKHLEKLKAKDKEAAERFLKELEEAAKEYAKDEAKTMSEEEAKRRAKKYKEKVLLSELSEEEQKEIKEAEEKLVRTILKYVEEQAK |
| 0.446 | E34I (designed binder) SMEEEVEKAAKEYEKKKKEAIEKHLEKLKAKDKIAAERFLKELEEAAKEYAKDEAKTMSEEEAKRRAKKYKEKVLLSELSEEEQKEIKEAEEKLVRTILKYVEEAAK |
| 0.49 | K16W (designed binder) SMEEEVEKAAKEYEKWKKEAIEKHLEKLKAKDKEAAERFLKELEEAAKEYAKDEAKTMSEEEAKRRAKKYKEKVLLSELSEEEQKEIKEAEEKLVRTILKYVEEAAK |
| 0.79 | K11W (designed binder) SMEEEVEKAAWEYEKKKKEAIEKHLEKLKAKDKEAAERFLKELEEAAKEYAKDEAKTMSEEEAKRRAKKYKEKVLLSELSEEEQKEIKEAEEKLVRTILKYVEEAAK |
| 0.49 | L28W (designed binder) SMEEEVEKAAKEYEKKKKEAIEKHLEKWKAKDKEAAERFLKELEEAAKEYAKDEAKTMSEEEAKRRAKKYKEKVLLSELSEEEQKEIKEAEEKLVRTILKYVEEAAK |
| 20.2 | A55W (designed binder) SMEEEVEKAAKEYEKKKKEAIEKHLEKLKAKDKEAAERFLKELEEAAKEYAKDEWKTMSEEEAKRRAKKYKEKVLLSELSEEEQKEIKEAEEKLVRTILKYVEEAAK |

Source: paper PMC12416549 (2024)
